According to patent US20040121957A1:

Molecular target: ΔNEG2-CFTR (CFTR with amino acids 817-838 deleted) (human), P13569
Assay: cell-based or functional assay

Chain of ΔNEG2-CFTR (CFTR with amino acids 817-838 deleted) (human), P13569 (P13569 other isoform, or with tags, fused parts or gaps mutant): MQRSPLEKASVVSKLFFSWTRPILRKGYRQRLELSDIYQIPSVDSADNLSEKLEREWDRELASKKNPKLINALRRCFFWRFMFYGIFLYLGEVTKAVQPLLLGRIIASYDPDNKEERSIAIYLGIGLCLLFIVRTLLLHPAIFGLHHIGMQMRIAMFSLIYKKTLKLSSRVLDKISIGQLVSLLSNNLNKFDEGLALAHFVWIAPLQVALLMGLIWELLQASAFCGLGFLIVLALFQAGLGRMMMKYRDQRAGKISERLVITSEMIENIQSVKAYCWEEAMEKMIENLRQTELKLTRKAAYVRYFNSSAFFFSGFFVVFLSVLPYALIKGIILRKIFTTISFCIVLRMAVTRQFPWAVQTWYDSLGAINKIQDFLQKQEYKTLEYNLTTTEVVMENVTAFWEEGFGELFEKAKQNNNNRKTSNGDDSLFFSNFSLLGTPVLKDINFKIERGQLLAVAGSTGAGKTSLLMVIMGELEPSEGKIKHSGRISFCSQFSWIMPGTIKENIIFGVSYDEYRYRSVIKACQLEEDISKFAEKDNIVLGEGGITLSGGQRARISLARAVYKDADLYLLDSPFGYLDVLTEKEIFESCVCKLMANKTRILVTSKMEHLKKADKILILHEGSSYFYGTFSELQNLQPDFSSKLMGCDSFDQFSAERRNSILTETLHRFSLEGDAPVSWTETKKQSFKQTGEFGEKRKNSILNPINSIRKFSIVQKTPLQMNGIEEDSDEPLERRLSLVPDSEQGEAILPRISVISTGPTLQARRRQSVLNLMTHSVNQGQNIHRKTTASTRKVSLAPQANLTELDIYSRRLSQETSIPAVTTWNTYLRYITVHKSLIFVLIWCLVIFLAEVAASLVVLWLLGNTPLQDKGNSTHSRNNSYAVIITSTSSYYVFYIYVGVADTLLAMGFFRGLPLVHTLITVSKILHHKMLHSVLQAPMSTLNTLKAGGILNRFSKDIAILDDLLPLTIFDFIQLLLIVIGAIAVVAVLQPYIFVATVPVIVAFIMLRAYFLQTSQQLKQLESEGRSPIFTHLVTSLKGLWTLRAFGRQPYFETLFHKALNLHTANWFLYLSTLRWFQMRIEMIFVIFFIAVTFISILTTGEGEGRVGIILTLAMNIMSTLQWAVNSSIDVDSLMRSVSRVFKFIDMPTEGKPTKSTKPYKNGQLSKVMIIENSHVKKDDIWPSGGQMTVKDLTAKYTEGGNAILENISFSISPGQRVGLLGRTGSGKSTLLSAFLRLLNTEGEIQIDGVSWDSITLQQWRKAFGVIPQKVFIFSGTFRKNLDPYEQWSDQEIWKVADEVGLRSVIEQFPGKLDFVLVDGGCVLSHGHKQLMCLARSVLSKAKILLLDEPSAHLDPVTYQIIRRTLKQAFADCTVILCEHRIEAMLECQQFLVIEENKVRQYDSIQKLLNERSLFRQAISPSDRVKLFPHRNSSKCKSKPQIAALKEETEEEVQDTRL

stimulation of single channel (peptide concentration): 0.44 µM
B1: synthetic NEG2 peptide (22 amino acid peptide corresponding to CFTR amino acids 817-838) (peptide)
peptide: GLEISEEINEEDLKECFFDDME
